According to patent US20120201828A1 (Sanofi, published 2012):

B1: hu2H11-PEG4-Mal-DM4 (DAR 6.99) (antibody, V domains shown)
VH: QVQLVQSGAEVVKPGASVKISCKASGYTFTAYYMHWVKQSPVQSLEWIGLVNPYNGFSSYNQKFQGKASLTVDKSSSTAYMELHSLTSEDSAVYYCAREFYGYRYFDVWGQGTAVTVSS
VL: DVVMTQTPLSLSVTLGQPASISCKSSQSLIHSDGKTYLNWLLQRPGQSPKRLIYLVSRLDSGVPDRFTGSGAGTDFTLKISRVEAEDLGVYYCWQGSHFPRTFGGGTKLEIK
modifications: DM4 through PEG4-Mal linker on lysine residues, sites not given; average DAR 6.99
B2: hu2H11R35R74-PEG4-Mal-DM4 (DAR 6.70) (antibody, V domains shown)
VH: QVQLVQSGAEVVKPGASVKISCKASGYTFTAYYMHWVKQSPVQSLEWIGLVNPYNGFSSYNQKFQGKASLTVDRSSSTAYMELHSLTSEDSAVYYCAREFYGYRYFDVWGQGTAVTVSS
VL: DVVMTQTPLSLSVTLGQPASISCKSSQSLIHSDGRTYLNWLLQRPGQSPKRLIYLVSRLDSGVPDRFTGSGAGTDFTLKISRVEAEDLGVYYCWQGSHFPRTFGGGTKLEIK
modifications: DM4 through PEG4-Mal linker on lysine residues, sites not given; average DAR 6.70
B3: hu2H11-SPDB-DM4 (DAR 3.93) (antibody, V domains shown)
VH: QVQLVQSGAEVVKPGASVKISCKASGYTFTAYYMHWVKQSPVQSLEWIGLVNPYNGFSSYNQKFQGKASLTVDKSSSTAYMELHSLTSEDSAVYYCAREFYGYRYFDVWGQGTAVTVSS
VL: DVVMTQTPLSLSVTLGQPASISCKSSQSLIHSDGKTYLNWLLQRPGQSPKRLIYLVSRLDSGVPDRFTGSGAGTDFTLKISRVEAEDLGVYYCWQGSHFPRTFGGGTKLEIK
modifications: DM4 through SPDB linker on lysine residues, sites not given; average DAR 3.93
B4: hu2H11R35R74-SPDB-DM4 (DAR 3.97) (antibody, V domains shown)
VH: QVQLVQSGAEVVKPGASVKISCKASGYTFTAYYMHWVKQSPVQSLEWIGLVNPYNGFSSYNQKFQGKASLTVDRSSSTAYMELHSLTSEDSAVYYCAREFYGYRYFDVWGQGTAVTVSS
VL: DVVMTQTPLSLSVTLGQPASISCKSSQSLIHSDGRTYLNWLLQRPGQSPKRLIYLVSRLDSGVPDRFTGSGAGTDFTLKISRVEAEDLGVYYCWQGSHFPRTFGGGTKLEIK
modifications: DM4 through SPDB linker on lysine residues, sites not given; average DAR 3.97
B5: hu2H11R35R74-PEG4-Mal-DM4 (DAR 6.1) (antibody, V domains shown)
VH: QVQLVQSGAEVVKPGASVKISCKASGYTFTAYYMHWVKQSPVQSLEWIGLVNPYNGFSSYNQKFQGKASLTVDRSSSTAYMELHSLTSEDSAVYYCAREFYGYRYFDVWGQGTAVTVSS
VL: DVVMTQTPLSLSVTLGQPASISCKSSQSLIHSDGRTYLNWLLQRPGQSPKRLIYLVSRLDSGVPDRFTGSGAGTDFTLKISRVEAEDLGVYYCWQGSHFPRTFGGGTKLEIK
modifications: DM4 through PEG4-Mal linker on lysine residues, sites not given; average DAR 6.1
B6: hu2H11R35R74-PEG4-NHAc-DM4 (DAR 5.5) (antibody, V domains shown)
VH: QVQLVQSGAEVVKPGASVKISCKASGYTFTAYYMHWVKQSPVQSLEWIGLVNPYNGFSSYNQKFQGKASLTVDRSSSTAYMELHSLTSEDSAVYYCAREFYGYRYFDVWGQGTAVTVSS
VL: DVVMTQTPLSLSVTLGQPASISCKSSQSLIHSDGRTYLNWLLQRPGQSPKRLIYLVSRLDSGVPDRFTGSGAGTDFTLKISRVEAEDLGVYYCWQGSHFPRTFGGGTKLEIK
modifications: DM4 through PEG4-NHAc linker on lysine residues, sites not given; average DAR 5.5
B7: hu2H11-PEG4-NHAc-DM4 (DAR 5.3) (antibody, V domains shown)
VH: QVQLVQSGAEVVKPGASVKISCKASGYTFTAYYMHWVKQSPVQSLEWIGLVNPYNGFSSYNQKFQGKASLTVDKSSSTAYMELHSLTSEDSAVYYCAREFYGYRYFDVWGQGTAVTVSS
VL: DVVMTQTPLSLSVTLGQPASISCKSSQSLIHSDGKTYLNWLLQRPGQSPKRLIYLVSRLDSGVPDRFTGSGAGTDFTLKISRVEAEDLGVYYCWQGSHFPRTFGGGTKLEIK
modifications: DM4 through PEG4-NHAc linker on lysine residues, sites not given; average DAR 5.3
B8: hu2H11-R35R74-PEG4-AcNMe-DM4 (DAR 5.4) (antibody, V domains shown)
VH: QVQLVQSGAEVVKPGASVKISCKASGYTFTAYYMHWVKQSPVQSLEWIGLVNPYNGFSSYNQKFQGKASLTVDRSSSTAYMELHSLTSEDSAVYYCAREFYGYRYFDVWGQGTAVTVSS
VL: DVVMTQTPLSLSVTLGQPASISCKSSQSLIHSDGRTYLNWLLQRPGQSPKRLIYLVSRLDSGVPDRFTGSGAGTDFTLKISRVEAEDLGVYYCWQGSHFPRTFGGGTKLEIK
modifications: DM4 through PEG4-AcNMe linker on lysine residues, sites not given; average DAR 5.4
B9: hu2H11-R35R74-PEG8-AcNH-DM4 (DAR 4.9) (antibody, V domains shown)
VH: QVQLVQSGAEVVKPGASVKISCKASGYTFTAYYMHWVKQSPVQSLEWIGLVNPYNGFSSYNQKFQGKASLTVDRSSSTAYMELHSLTSEDSAVYYCAREFYGYRYFDVWGQGTAVTVSS
VL: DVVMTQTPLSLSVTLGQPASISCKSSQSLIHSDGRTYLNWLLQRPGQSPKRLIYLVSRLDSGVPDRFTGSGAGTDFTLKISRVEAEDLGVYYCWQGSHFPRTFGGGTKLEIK
modifications: DM4 through PEG8-AcNH linker on lysine residues, sites not given; average DAR 4.9
B10: hu2H11-R35R74-Acetyl-DM4 (DAR 6.5) (antibody, V domains shown)
VH: QVQLVQSGAEVVKPGASVKISCKASGYTFTAYYMHWVKQSPVQSLEWIGLVNPYNGFSSYNQKFQGKASLTVDRSSSTAYMELHSLTSEDSAVYYCAREFYGYRYFDVWGQGTAVTVSS
VL: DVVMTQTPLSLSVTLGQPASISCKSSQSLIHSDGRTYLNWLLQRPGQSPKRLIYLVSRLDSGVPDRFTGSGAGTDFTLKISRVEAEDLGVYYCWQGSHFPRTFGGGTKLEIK
modifications: DM4 through Acetyl linker, sites not given; average DAR 6.5
B11: hu2H11-R35R74-PEG4-AcNH-DM4 (DAR 5.9) (antibody, V domains shown)
VH: QVQLVQSGAEVVKPGASVKISCKASGYTFTAYYMHWVKQSPVQSLEWIGLVNPYNGFSSYNQKFQGKASLTVDRSSSTAYMELHSLTSEDSAVYYCAREFYGYRYFDVWGQGTAVTVSS
VL: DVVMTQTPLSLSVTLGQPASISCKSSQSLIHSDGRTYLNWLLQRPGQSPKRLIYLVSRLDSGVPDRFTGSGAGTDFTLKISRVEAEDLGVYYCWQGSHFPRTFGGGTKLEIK
modifications: DM4 through PEG4-AcNH linker on lysine residues, sites not given; average DAR 5.9
B12: hu2H11-R35R74-PEG4-Allyl-DM4 (DAR 5.3) (antibody, V domains shown)
VH: QVQLVQSGAEVVKPGASVKISCKASGYTFTAYYMHWVKQSPVQSLEWIGLVNPYNGFSSYNQKFQGKASLTVDRSSSTAYMELHSLTSEDSAVYYCAREFYGYRYFDVWGQGTAVTVSS
VL: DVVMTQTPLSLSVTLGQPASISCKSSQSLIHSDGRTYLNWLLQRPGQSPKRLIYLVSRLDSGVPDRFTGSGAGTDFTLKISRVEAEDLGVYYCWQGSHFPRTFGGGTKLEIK
modifications: DM4 through PEG4-Allyl linker on lysine residues, sites not given; average DAR 5.3
B13: hu2H11R35R74-PEG4-NHAc-DM4 (D/A 6.3) (antibody, V domains shown)
VH: QVQLVQSGAEVVKPGASVKISCKASGYTFTAYYMHWVKQSPVQSLEWIGLVNPYNGFSSYNQKFQGKASLTVDRSSSTAYMELHSLTSEDSAVYYCAREFYGYRYFDVWGQGTAVTVSS
VL: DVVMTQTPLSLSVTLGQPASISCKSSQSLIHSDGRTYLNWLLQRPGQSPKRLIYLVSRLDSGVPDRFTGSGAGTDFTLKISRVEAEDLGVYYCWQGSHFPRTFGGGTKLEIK
modifications: DM4 through PEG4-NHAc linker on lysine residues, sites not given; average D/A 6.3 per antibody
notes: Antibody-drug conjugate of hu2H11R35R74; constant regions as for m2
B14: hu2H11R35R74-PEG4-NHAc-DM4 (D/A 8.4) (antibody, V domains shown)
VH: QVQLVQSGAEVVKPGASVKISCKASGYTFTAYYMHWVKQSPVQSLEWIGLVNPYNGFSSYNQKFQGKASLTVDRSSSTAYMELHSLTSEDSAVYYCAREFYGYRYFDVWGQGTAVTVSS
VL: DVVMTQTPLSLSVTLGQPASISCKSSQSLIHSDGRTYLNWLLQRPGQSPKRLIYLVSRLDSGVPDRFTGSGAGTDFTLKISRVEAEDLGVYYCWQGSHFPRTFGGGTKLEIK
modifications: DM4 through PEG4-NHAc linker on lysine residues, sites not given; average D/A 8.4 per antibody
notes: as for B13
B15: hu2H11R35R74-PEG4-NHAc-DM4 (D/A 7.4) (antibody, V domains shown)
VH: QVQLVQSGAEVVKPGASVKISCKASGYTFTAYYMHWVKQSPVQSLEWIGLVNPYNGFSSYNQKFQGKASLTVDRSSSTAYMELHSLTSEDSAVYYCAREFYGYRYFDVWGQGTAVTVSS
VL: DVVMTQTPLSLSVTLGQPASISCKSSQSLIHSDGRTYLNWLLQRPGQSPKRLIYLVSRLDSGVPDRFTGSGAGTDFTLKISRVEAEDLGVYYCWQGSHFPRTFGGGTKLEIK
modifications: DM4 through PEG4-NHAc linker on lysine residues, sites not given; average D/A 7.4 per antibody
notes: as for B13
B16: hu2H11R35R74-PEG4-NHAc-DM4 (D/A 5.6) (antibody, V domains shown)
VH: QVQLVQSGAEVVKPGASVKISCKASGYTFTAYYMHWVKQSPVQSLEWIGLVNPYNGFSSYNQKFQGKASLTVDRSSSTAYMELHSLTSEDSAVYYCAREFYGYRYFDVWGQGTAVTVSS
VL: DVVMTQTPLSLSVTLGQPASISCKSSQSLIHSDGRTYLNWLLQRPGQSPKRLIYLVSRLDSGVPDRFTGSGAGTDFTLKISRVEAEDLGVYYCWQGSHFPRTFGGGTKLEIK
modifications: DM4 through PEG4-NHAc linker on lysine residues, sites not given; average D/A 5.6 per antibody
notes: as for B13
B17: hu2H11R35R74 (antibody, V domains shown)
VH: QVQLVQSGAEVVKPGASVKISCKASGYTFTAYYMHWVKQSPVQSLEWIGLVNPYNGFSSYNQKFQGKASLTVDRSSSTAYMELHSLTSEDSAVYYCAREFYGYRYFDVWGQGTAVTVSS
VL: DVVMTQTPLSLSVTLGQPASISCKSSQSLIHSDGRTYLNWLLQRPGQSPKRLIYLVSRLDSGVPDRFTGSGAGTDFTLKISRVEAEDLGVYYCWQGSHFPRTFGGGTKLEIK
notes: only the variable domains are tied by name to humanized 2H11R35R74; also called humanized 2H11R35R74; naked hu2H11R35R74
B18: hu2H11R35R74-PEG4-NHAc-DM4 (D/A 9.3) (antibody, V domains shown)
VH: QVQLVQSGAEVVKPGASVKISCKASGYTFTAYYMHWVKQSPVQSLEWIGLVNPYNGFSSYNQKFQGKASLTVDRSSSTAYMELHSLTSEDSAVYYCAREFYGYRYFDVWGQGTAVTVSS
VL: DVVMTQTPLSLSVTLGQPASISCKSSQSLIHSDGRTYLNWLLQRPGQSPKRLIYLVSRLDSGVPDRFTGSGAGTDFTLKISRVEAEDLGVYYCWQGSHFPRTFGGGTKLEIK
modifications: DM4 through PEG4-NHAc linker on lysine residues, sites not given; average D/A 9.3 per antibody
notes: as for B13
B19: hu2H11-PEG4-NHAc-DM4 (D/A 7.5) (antibody, V domains shown)
VH: QVQLVQSGAEVVKPGASVKISCKASGYTFTAYYMHWVKQSPVQSLEWIGLVNPYNGFSSYNQKFQGKASLTVDKSSSTAYMELHSLTSEDSAVYYCAREFYGYRYFDVWGQGTAVTVSS
VL: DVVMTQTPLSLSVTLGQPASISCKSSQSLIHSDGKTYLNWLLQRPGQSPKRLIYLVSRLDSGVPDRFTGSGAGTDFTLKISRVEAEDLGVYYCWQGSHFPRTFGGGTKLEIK
modifications: DM4 through PEG4-NHAc linker on surface lysine residues, sites not given; average D/A 7.5 per antibody
notes: Antibody-drug conjugate of hu2H11; also called conjugated hu2H11
B20: hu2H11 (antibody, V domains shown)
VH: QVQLVQSGAEVVKPGASVKISCKASGYTFTAYYMHWVKQSPVQSLEWIGLVNPYNGFSSYNQKFQGKASLTVDKSSSTAYMELHSLTSEDSAVYYCAREFYGYRYFDVWGQGTAVTVSS
VL: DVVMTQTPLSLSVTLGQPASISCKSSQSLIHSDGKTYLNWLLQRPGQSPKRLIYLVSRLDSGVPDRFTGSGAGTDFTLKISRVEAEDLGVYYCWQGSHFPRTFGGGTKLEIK
notes: Humanized IgG made in CHO cells; also called hu53.2H11; humanized 53.2H11

Target: T1, EphA2 receptor on tumor cells (human, UniProt P29317 24-976)
Assay: cell-based or functional assay

T1 sequence (P29317 24-976): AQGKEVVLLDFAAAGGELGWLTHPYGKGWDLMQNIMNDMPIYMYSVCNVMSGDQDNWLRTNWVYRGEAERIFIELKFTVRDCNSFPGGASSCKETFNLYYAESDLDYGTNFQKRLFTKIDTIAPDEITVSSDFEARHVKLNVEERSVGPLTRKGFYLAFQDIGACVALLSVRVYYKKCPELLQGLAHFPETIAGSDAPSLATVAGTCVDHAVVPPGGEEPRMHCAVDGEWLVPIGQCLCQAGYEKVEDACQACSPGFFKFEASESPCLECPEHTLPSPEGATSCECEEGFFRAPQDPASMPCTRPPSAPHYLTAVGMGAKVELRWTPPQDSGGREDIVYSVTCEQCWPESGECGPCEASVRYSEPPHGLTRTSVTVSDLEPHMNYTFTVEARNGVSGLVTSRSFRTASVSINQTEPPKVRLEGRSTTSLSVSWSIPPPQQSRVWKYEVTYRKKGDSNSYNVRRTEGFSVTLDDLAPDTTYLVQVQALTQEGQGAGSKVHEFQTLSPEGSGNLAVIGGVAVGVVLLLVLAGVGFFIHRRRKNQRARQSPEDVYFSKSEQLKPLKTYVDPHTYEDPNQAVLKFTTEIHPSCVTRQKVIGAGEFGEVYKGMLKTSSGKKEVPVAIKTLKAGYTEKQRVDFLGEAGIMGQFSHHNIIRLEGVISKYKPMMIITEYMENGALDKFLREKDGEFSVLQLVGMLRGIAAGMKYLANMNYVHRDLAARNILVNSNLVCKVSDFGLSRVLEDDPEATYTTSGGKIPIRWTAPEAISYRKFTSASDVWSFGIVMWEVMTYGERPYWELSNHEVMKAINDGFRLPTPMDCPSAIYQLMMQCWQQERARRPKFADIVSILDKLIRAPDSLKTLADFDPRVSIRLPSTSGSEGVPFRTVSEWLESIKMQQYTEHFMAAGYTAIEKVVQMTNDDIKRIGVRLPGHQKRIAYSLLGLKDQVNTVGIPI

| Binder | IC50 (M), cytotoxic activity on Lovo cells (WST8, 5 days) |
| --- | --- |
| B1 | 1.22e-10 M |
| B2 | 7.96e-11 M |

Target: T1, EphA2 receptor on tumor cells
Assay: cell-based or functional assay
Remark: another data set of the same source

| Binder | MDA-MB231 + naked 2H11 (1 uM) IC50 (nM), 14C thymidine uptake | MDA-MB231 IC50 (nM), 14C thymidine uptake | Ratio of IC50s (with naked 2H11 / alone) on MDA-MB231 |
| --- | --- | --- | --- |
| B3 | 8.1 nM | 1.1 nM | 7 |
| B4 | 11.5 nM | 1.2 nM | 9 |
| B5 | 25.1 nM | 0.1 nM | 228 |
| B6 | 80.8 nM | 0.06 nM | 1350 |
| B7 | 27.4 nM | 0.2 nM | 114 |

Target: T1, EphA2 receptor on tumor cells
Assay: cell-based or functional assay
Remark: another data set of the same source

| Binder | IC50 (pM), + naked hu2H11R35R74 (1 uM), MDA MB231 cells | IC50 (pM), ADC alone, MDA MB231 cells, 14C thymidine uptake | ratio of IC50s (+ naked hu2H11R35R74 / ADC alone) |
| --- | --- | --- | --- |
| B8 | 36400 pM | 217 pM | 168 |
| B9 | 25000 pM | 400 pM | 62 |
| B10 | 19500 pM | 185 pM | 105 |
| B11 | 29700 pM | 147 pM | 202 |
| B12 | 7820 pM | 161 pM | 49 |

Target: T2, huEphA2-mFc (human, UniProt P29317 24-534, limits assumed)
T2 construct: Immobilised antigen of the Biacore experiment; also called EphA2-Fc; extra-cellular domain of EphA2 receptor-Fc; not shown: mouse Fc (mFc)
Assay: SPR, Biacore 3000; EphA2-Fc amine-coupled on C1 chip, IgG in flow, 25 C, 1:1 Langmuir fit
Method: pH=4.5) was coupled to the matrix of a C1 sensor chip (GE healthcare BR-1005-40) at 10 μl/min using a standard amine coupling protocol with EDC (N-ethyl-N′-[dimethyl-aminopropyl]carbodiimide)/NHS (N-hydroxysuccinimide). The density was controlled at an increased response level of ˜100 response units (RU) in kinetic binding experiments. IgGs were diluted in 0.01 M Hepes, pH 7.4 containing 0.15 M NaCl, 3 mM EDTA, and 0.005% P20. All subsequent dilutions were made in the same buffer. All binding experiments were performed at 25° C. with IgG concentrations typically ranging from 50 to 0.2 nM at a flow rate of 50 μl/min.
Data were collected for approximately 12 min (2 min association time and 10 min dissociation time) and 1 min pulse at 30 μl/min of 1M NaCl, 50 mM NaOH was used to regenerate the surfaces. IgGs were also flowed over an uncoated cell and the sensorgrams from the blank runs were substracted from those obtained with EphA2-Fc coupled chips. Data were fitted to a 1:1 Langmuir binding model with drifting baseline. This algorithm calculates both the kₒₙ and the koff, from which the apparent equilibrium dissociation constant KD, is deduced as the ratio of the two rate constants (koff/kₒₙ).
The affinity constant was first measured with both naked hu2H11 and hu2H11R35R74.

T2 sequence (P29317 24-534 limits assumed): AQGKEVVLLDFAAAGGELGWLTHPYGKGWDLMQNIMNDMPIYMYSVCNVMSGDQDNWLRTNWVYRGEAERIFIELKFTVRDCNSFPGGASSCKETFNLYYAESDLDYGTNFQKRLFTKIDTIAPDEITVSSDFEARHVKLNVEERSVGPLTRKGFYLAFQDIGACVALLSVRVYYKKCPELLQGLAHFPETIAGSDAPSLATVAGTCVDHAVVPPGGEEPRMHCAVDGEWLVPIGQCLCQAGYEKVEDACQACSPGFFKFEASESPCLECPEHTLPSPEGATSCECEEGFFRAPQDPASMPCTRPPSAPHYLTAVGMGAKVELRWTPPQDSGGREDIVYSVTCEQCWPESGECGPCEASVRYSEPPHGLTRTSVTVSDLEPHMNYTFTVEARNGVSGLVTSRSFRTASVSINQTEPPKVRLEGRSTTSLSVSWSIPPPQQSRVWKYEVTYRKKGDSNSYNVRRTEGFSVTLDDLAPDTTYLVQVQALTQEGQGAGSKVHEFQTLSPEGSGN

| Binder | Ka | Kd | Ratio (KD against naked hu2H11) | koff | kon |
| --- | --- | --- | --- | --- | --- |
| B13 | 3.55e+09 M⁻¹ | 282 pM | 0.9 fold | 0.00119 s⁻¹ | 4.21e+06 M⁻¹ s⁻¹ |
| B14 | 3.76e+09 M⁻¹ | 266 pM | 0.9 fold | 0.00111 s⁻¹ | 4.15e+06 M⁻¹ s⁻¹ |
| B15 | 3.64e+09 M⁻¹ | 275 pM | 0.9 fold | 0.00123 s⁻¹ | 4.47e+06 M⁻¹ s⁻¹ |
| B16 | 3.8e+09 M⁻¹ | 263 pM | 0.9 fold | 0.00115 s⁻¹ | 4.35e+06 M⁻¹ s⁻¹ |
| B17 | 4.59e+09 M⁻¹ | 218 pM | 0.7 fold | 0.00115 s⁻¹ | 5.25e+06 M⁻¹ s⁻¹ |
| B18 | 2.38e+09 M⁻¹ | 421 pM | 1.4 fold | 0.00129 s⁻¹ | 3.08e+06 M⁻¹ s⁻¹ |
| B19 | 6.16e+08 M⁻¹ | 1620 pM | 5.4 fold | 0.00242 s⁻¹ | 1.49e+06 M⁻¹ s⁻¹ |
| B20 | 3.39e+09 M⁻¹ | 298 pM | 1 fold | 0.0011 s⁻¹ | 3.71e+06 M⁻¹ s⁻¹ |
